In patent publication US20130347134A1, “TRANSGENIC VON WILLEBRAND FACTOR ANIMALS AND USES THEREOF” (priority 2012, published 2013):

System: murine platelets
Test: In vitro flow chamber, mouse platelets on recombinant VWF-A1, 800 s^-1
Type: cell-based
Conditions: wall shear rate 800 s^−1
Method: The protein was subsequently used in a series of in vitro flow chamber assays to assess function. Washed human or murine platelets (5×10^7/ml) were infused through a parallel plate flow chamber containing glass cover slips coated with either human VWF-A1 or mouse VWF-A1 protein (100 μg/ml final concentration) at a shear rate of 800 s^−1. After 5 minutes of continuous flow, adherent platelets were quantified.
In the case of the latter, the murine A1 fragment was inserted into pET-11b (Stratagene) and purified as previously described (Miura et al., 2000).
Support for this hypothesis is provided by mutagenesis studies. By analyzing the data obtained from the crystal structure of the murine VWF-A1 domain, the inventors have identified several residues that may participate in interactions with GPIb α (FIG. 15C). Residue 1326 was initially chosen for study and was mutated to the corresponding amino acid at the identical location in its human counterpart (from Arg to His). Subsequently, the ability of murine and human platelets to interact with this mutant protein substrate was evaluated at a wall shear rate of 800 s^−1. Incorporation of a histidine for arginine at position 1326 in murine VWF-A1 reduced murine platelet adhesion by about 5-fold and increased translocation velocities of cells by about 7-fold as compared to the WT mouse protein (FIGS. 13 and 16). […]

B1: His-tag M VWF-A1: recombinant murine VWF-A1 with N-terminus His tag (protein)
chain: QEPGGLVAPPTDAPVSSTTPYVEDTPEPPLHNFYCSKLLDLVFLLDGSSMLSEAEFEVLKAFVVGMMERLHISQKRIRVAVVEYHDGSRAYLELKARKRPSELRRITSQIKYTGSQVASTSEVLKYTLFQIFGKIDRPEASHITLLLTASQEPPRMARNLVRYVQGLKKKKVIVIPVGIGPHASLKQIRLIEKQAPENKAFLLSGVDELEQRRDEIVSYLCDLAPEAPAPTQPP
platelets that adhered to and translocated: 449±53 platelets/mm^2
